This is an account of results in doi:10.1101/2025.11.18.25340485 (medRxiv, 2025).

The assay addresses T1, WT-RBD (receptor-binding domain of the SARS-CoV-2 wild-type, Wuhan-Hu-1, spike protein) (SARS-CoV-2, UniProt P0DTC2).
T1 construct: not shown: His6, C-terminal, kept
Kind of assay: BLI. The conditions noted are these: both partners purified.

B1: CC25.4 Fab (Fab, V domains shown)
VH: QVQLVQSGAEVKKPGASVKVSCKASGYTFTDYFLHWVRQAPGQGLEWMGWINPDSGGTNYAQRFQGRVTMTRDTSISTAYMEVSRLRSDDTAVYYCARDNERYQMQNYYHYYGMDVWGQGTTVTVVS
VL: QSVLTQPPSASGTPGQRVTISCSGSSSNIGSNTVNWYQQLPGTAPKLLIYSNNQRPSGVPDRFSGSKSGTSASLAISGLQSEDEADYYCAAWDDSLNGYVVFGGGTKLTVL
notes: also called class V antibody; source: ExpiCHO cells, co-transfected, purified (CaptureSelect CH1-XL, SEC)
Turning to B1, the affinity, expressed as Kd, was 400 pM.
